Tests used:
[1] = tested on: C. elegans; experiment: Locomotion assay (body bends); assay type: in vivo, Caenorhabditis elegans; settings: mtON activation
Procedure: […] One body bend was scored as a deflection of direction of motion of the posterior pharyngeal bulb. For AMPK activation, animals were placed on plates containing 1 mM AICAR 4 h before counting body bends. AICAR was dissolved in M9 buffer, added directly onto OP50 seeded plates, and allowed to dry. Illumination was continuous through measurements (MVX, 0.265 mW/mm^2).

[2] = tested on: C. elegans; experiment: Mitochondrial mass and unfolded protein response (staining, quantitative proteomics); assay type: in vivo, Caenorhabditis elegans
Procedure: Scale bar is 10 μm. Experiment was performed 3 times with similar results. […] Scale bar is 10 μm. Experiment was performed 3 times with similar results. C) Relative pharynx TMRE fluorescence in mtON (ex. array) animals stained at day 4 of adulthood under the indicated conditions. One-way ANOVA with Tukey's test, *p=0.0001, n=33, 34, 26, 35 animals for each bar from left to right. D) Relative pharynx MitoTracker fluorescence in animals stained at day 4 of adulthood.
Genes encoding proteins are as follows. Complex I: nuo-1, nuo-5. complex II: sdha-1, mev-1, sdhb-1. Complex III: isp-1. Complex IV: cox-5a. ATP synthase: R04F11.2, atp-5. Translocase of the outer membrane (TOM70): tomm-70. VDAC: vdac-1. Uniprot C. elegans proteome database protein codes are presented above each plot. B) Proteins that mediate the mitochondrial unfolded protein response are not affected by mtON activation, two-tailed unpaired t test, −ATR n=5, +ATR n=4 biological replicates. Genes encoding proteins are hsp-6 and hsp-60.

[3] = tested on: C. elegans; experiment: In vivo mitochondrial membrane potential (TMRE) in aged animals; parameters: species or system Caenorhabditis elegans
Procedure: FIG. 8 is a composite of drawings showing that mtON restores lost membrane potential and increases lifespan. […] One-way ANOVA with Tukey's post hoc test for multiple comparisons, *p<0.05. Data are means±standard error of the mean. Panel B) mtON activation throughout adult life extends lifespan (n=?). […] Log rank Mantel Cox test for survival comparison, p=0.018.
Panel A) Representative images of day 4 adult animals exposed to 100 nM TMRE for 24 hours. Pharynx region of interest (ROI) is outlined in dotted white lines. All animals were expressing mtON through single-copy CRISPR/Cas9 insertion to the genome. Panel B) Quantification of TMRE fluorescence in mtON-expressing day 4 adult animals exposed to 100 nM TMRE for 24 hours. Whole-body fluorescence as well as pharynx ROIs were quantified. Control represents animals exposed to light but without ATR supplementation. Statistics are student's two tailed unpaired t tests. * p<0.001.
Scale bar, 250 μm. c, Quantification of relative TMRE fluorescence. One-way analysis of variance (ANOVA) with Tukey's multiple comparisons test, day 1 versus day 4, P=0.0001, day 1 versus day 10, P=0.0002, n=44, 18 and 30. Data are median±quartiles (dotted lines). d, Pharynx TMRE fluorescence normalized to mitochondrial mass in day 4 worms. […]

[4] = tested on: mitochondria from HEK293T cells; experiment: TMRE membrane potential of mitochondria isolated from HEK293T cells; assay type: biochemical; settings: 540-600 nm light, absence of succinate
Text: Stimulation of mtON with light results in polarization of the mitochondrial inner membrane. To determine whether mtON reaches the inner mitochondrial membrane in the correct orientation and to confirm the functional responsiveness of mtON, the study measured the mitochondrial membrane potential (Dym) using TMRE. The study first isolated mitochondria from HEK293T cells expressing mtON and treated them with succinate, a complex II ETC substrate, to generate a maximal mitochondrial membrane potential as a positive control (FIG. 9, panel D).
Based on this model, light stimulation of mtON results in the polarization of the mitochondrial inner membrane. To determine whether mtON reaches the inner mitochondrial membrane in the correct orientation and to confirm the functional responsiveness of mtON, the mitochondrial inner membrane potential (Δψm) was measured using tetramethylrhodamine, ethyl ester (TMRE). TMRE is a lipophilic cationic dye that accumulates in the mitochondrial matrix proportional to the mitochondrial membrane potential. First, mitochondria were isolated from HEK293T cells expressing mtON and treated them with succinate, a substrate for the ETC (complex II), to induce a maximal mitochondrial membrane potential as a positive control.

[5] = tested on: isolated C. elegans mitochondria; experiment: Mitochondrial matrix pH measurement (BCECF-AM); assay type: biochemical, Caenorhabditis elegans; settings: mtON activation by light
Procedure: The ratiometric pH indicator BCECF-AM (Thermo Fisher, B1170) was used to measure pH changes in the mitochondrial matrix in response to succinate respiration or mtON activation. Isolated mitochondria (˜200 μl per isolation) were incubated at room temperature with 50 μM BCECF-AM for 10 min with periodic mixing. Mitochondria were then pelleted at 7,000 g for 5 min at 4° C., and isolation media replaced and pelleted again to remove extramitochondrial BCECF-AM. Isolated mitochondrial suspensions were then assayed under the same conditions as in the mitochondrial membrane potential measurements described above. Ratiometric fluorescent signal was measured by Cary Eclipse Fluorescence Spectrophotometer (Agilent Technologies) using 440 and 490 nm excitation wavelengths and 545 nm emission. The fluorescence intensity ratio at 545 nm of 490/440 nm excitation wavelengths was used to represent pH changes in the mitochondrial matrix. Light treatment was 0.16 J/cm^2 (XCite LED, 0.02 mW/mm^2), and 2 μM FCCP was used at the end of each trace to establish baseline signal.

B1: mtON: fusion of the 187 N-terminal amino acids of mouse IMMT1 to the light-activated proton pump (Mac) from Leptosphaeria maculans (protein)
chain: MLRACQLSGVTVAAQSCLCGKFVLRPLRPCRRYSTSSSSGLTAGKIAGAGLLFVGGGIGGTILYAKWDSHFRESVEKTIPYSDKLFGMVLGSAPYTVPLPKKPVQSGPLKISSVSEVMKDSKLPVAQSQKTKGDTPASAASTGAAQIISAAGDTLSVPAPAVQHEDTIKTECPNTNEGKSTSETTEEPAGLIVDQFEEVLMKTSQLFPLPTATQSAQPTHVAPVPTVLPDTPIYETVGDSGSKTLWVVFVLMLIASAAFTALSWKIPVNRRLYHVITTIITLTAALSYFAMATGHGVALNKIVIRTQHDHVPDTYETVYRQVYYARYIDWAITTPLLLLDLGLLAGMSGAHIFMAIVADLIMVLTGLFAAFGSEGTPQKWGWYTIACIAYIFVVWHLVLNGGANARVKGEKLRSFFVAIGAYTLILWTAYPIVWGLADGARKIGVDGEIIAYAVLDVLAKGVFGAWLLVTHANLRESDVELNGFWANGLNREGAIRIGEDDGAR
modifications: Synthetic Complete mtON fusion protein sequence
Which locomotion off food ([1]; animals off food) does the source give for B1 here?
Its locomotion off food is “suppressing their movement”.

What about the “locomotion speed (body bends per minute)” value ([1]; complex I mutant background (gas-1), in presence of food) of the same molecule?
The value was “rescued the decreased locomotion”.

And the “targets of the mitochondrial unfolded protein response” value ([2]; after mtON activation)?
Its value is “did not change”.

What about the mitochondrial mass ([2]; mitochondrial staining and quantitative proteomics) of the same molecule?
The mitochondrial mass was “did not impact mitochondrial mass”.

What about the “whole-animal measures of PMF” value ([3]; mtON activation for 4 days into adulthood vs age-matched controls) of the same molecule?
The value was “significantly increased”.

What about the “age-related decline of Δψm” value ([3]; mtON activation, two different genetic backgrounds) of the same molecule?
The value was “reversed that decline”.

And the “mitochondrial membrane potential (TMRE)” value [4]?
Its value is “sufficient to rescue the mitochondrial membrane potential”.

What about the “mitochondrial matrix pH (BCECF-AM ratio)” value [5] of the same molecule?
The value was “matrix pH increased”.

— patent US20260167679A1, “FUSION PROTEIN TARGETING MITOCHONDRIA, METHOD OF MAKING AND USE THEREOF” (UNIVERSITY OF ROCHESTER, priority 2020, published 2026)
